Results published in the supplement of paper PMC7877785.
± gives the uncertainty stated by the source.

Assay: self-splicing fitness, log relative to wild type (ln ratio); higher = more splicing; Tetrahymena group I intron in knt gene, E. coli kanamycin selection, DiMSum; sequences stand for … in CUCUCU…GGAGGGAAAAGUUAUCAGGCAUGCACCUGGUAGCUAGUCUUUAAACCAAUAGAUUGCAUCGGUUUAAAAGGCAAGACCGUCAAAUUGCGGGAAAGGGGUCAACAGCCGUUCAGUACCAAGUCUCAGGGGAAACUUUGAGAUGGCCUUGCAAAGGGUAUGGUAAUAAGCUGACGGACAUGGUCCUAACCACGCAGCCAAGUCCUAAGUCAACAGAUCUUCUGUUGAUAUGGAUGCAGUUCACAGACUAAAUGUCGGUCGGGGAAGAUGUAUUCUUCUCAUAAGAUAUAGUCGGACCUCUCCUUAAUGGGAGCUAGCGGAUGAAGUGAUGCAACACUGGAGCCGCUGGGAACUAAUUUGUAUGCGAAAGUAUAUUGAUUAGUUUUGGAGUACUCGUGGUCG
In short: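 Fitness was computed with DiMSum as the error-weighted combination of replicate fold changes, kanamycin versus none, each normalised to wild type. The library randomised all eight intron nucleotides of the P1ex region, with the intron placed in the knt kanamycin-resistance gene on pET-22b(+) in E. coli BL21(DE3). Six replicate transformations were grown overnight at 37°C or 30°C on LB agar with or without 25 μg/mL kanamycin, plus 100 μg/mL carbenicillin, 50 μM IPTG and 0.2% rhamnose. Pooled colonies were amplicon-sequenced on an Illumina HiSeq 2500.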

Row | Sequence | self-splicing fitness (ln) (30 °C) | self-splicing fitness (ln) (37 °C)
1 | AGAAAGCAAUAUUACGCUGA | -3.08 ± 0.21 | -0.267 ± 0.15
2 | UAAUAGCAAUAUUACGCCAA | – | -2.37 ± 0.26
3 | AUAUAGCAAUAUUACGAUUU | -0.24 ± 0.095 | 0.694 ± 0.12
4 | GAAAAGCAAUAUUACGCGAC | – | 0.397 ± 0.26
5 | CCAGAGCAAUAUUACGCGGG | -3.33 ± 0.44 | –
6 | UCAUAGCAAUAUUACGCCCG | -0.515 ± 0.21 | -0.292 ± 0.3
7 | GUAUAGCAAUAUUACGUGCG | -1.4 ± 0.12 | -0.66 ± 0.15
8 | AACGAGCAAUAUUACGUGCA | -2.58 ± 0.13 | -2.01 ± 0.18
9 | AAAGAGCAAUAUUACGGCAA | -3.23 ± 0.36 | -1.58 ± 0.19
10 | ACAUAGCAAUAUUACGUGUC | -4.9 ± 0.41 | -2.72 ± 0.28
11 | AUCUAGCAAUAUUACGUCUG | -1.72 ± 0.14 | -0.625 ± 0.14
12 | GGGUAGCAAUAUUACGUUAC | – | -4.17 ± 0.46
13 | GUUAAGCAAUAUUACGUAUU | -3.27 ± 0.19 | -0.277 ± 0.16
14 | GUAAAGCAAUAUUACGCGGU | -2.79 ± 0.12 | -1.87 ± 0.15
15 | AAUUAGCAAUAUUACGCUGA | -2.75 ± 0.4 | -2.42 ± 0.27
16 | CCACAGCAAUAUUACGUGAC | -3.38 ± 0.16 | -2.01 ± 0.13
17 | AAACAGCAAUAUUACGGUGA | -0.283 ± 0.093 | -0.496 ± 0.12
18 | UUUCAGCAAUAUUACGAUAU | -1.88 ± 0.15 | -0.0425 ± 0.12
19 | GGUAAGCAAUAUUACGAUAC | -0.265 ± 0.12 | -0.608 ± 0.16
20 | AUCCAGCAAUAUUACGCGGG | -3.37 ± 0.13 | -2.42 ± 0.17

Row | Sequence | self-splicing fitness (ln) (30 °C) | self-splicing fitness (ln) (37 °C)
21 | CAUAAGCAAUAUUACGAUUG | -2.62 ± 0.095 | -1.27 ± 0.11
22 | CGAAAGCAAUAUUACGCACA | -0.831 ± 0.11 | -0.358 ± 0.16
23 | CCGUAGCAAUAUUACGAAUU | -3.75 ± 0.25 | -2.85 ± 0.34
24 | UACUAGCAAUAUUACGAUCG | 0.0068 ± 0.092 | 0.387 ± 0.12
25 | GGCAAGCAAUAUUACGCGAU | -2.6 ± 0.25 | -2.37 ± 0.24
26 | CUUGAGCAAUAUUACGUAGU | -3.28 ± 0.3 | -2.11 ± 0.33
27 | GGGCAGCAAUAUUACGAACG | -1.18 ± 0.12 | 0.475 ± 0.17
28 | AGGCAGCAAUAUUACGCCGG | -1.09 ± 0.15 | -1.66 ± 0.17
29 | GCUGAGCAAUAUUACGUAGA | -2.41 ± 0.2 | -0.888 ± 0.21
30 | ACGGAGCAAUAUUACGCGAG | -2.86 ± 0.13 | -1.35 ± 0.13
31 | AUGUAGCAAUAUUACGGGCC | -2.93 ± 0.35 | -1.86 ± 0.32
32 | AACGAGCAAUAUUACGGACC | -2.49 ± 0.15 | -1.55 ± 0.22
33 | CAAUAGCAAUAUUACGCGGU | -3.88 ± 0.19 | -3.12 ± 0.2
34 | GCCUAGCAAUAUUACGCAAC | -1.78 ± 0.14 | -1.21 ± 0.13
35 | GACCAGCAAUAUUACGGCGG | -2.55 ± 0.2 | -2.79 ± 0.27
36 | AGCGAGCAAUAUUACGCGCG | -4.04 ± 0.33 | -1.89 ± 0.25
37 | GCGUAGCAAUAUUACGAAUU | -1.52 ± 0.1 | -0.549 ± 0.12
38 | CAAAAGCAAUAUUACGUUAA | -2.65 ± 0.16 | -2.06 ± 0.12
39 | CACAAGCAAUAUUACGAUGC | -4.12 ± 0.31 | -2.69 ± 0.27
